The values that follow come from paper PMC7503162.

Usually Kd stands for the concentration at which binding is half-saturated.

Test [1] has as its target Recombinant human LRP1 cluster IV Fc chimera protein (human). As to the kind of experiment: SPR. (In general: Surface plasmon resonance follows binding to a sensor surface in real time, without labels.)
The target of test [2] is Recombinant human LRP1 cluster III Fc chimera protein (human). As to the kind of experiment: SPR.
For test [3], the target named is Recombinant human LRP1 cluster II Fc chimera protein (human). Kind of test: SPR.
The target in test [4] is Low-density lipoprotein receptor-related protein 1 (LRP1), purified from human placenta (human (purified from human placenta)) (UniProt Q07954). Kind of test: SPR.
Sequence of Low-density lipoprotein receptor-related protein 1 (LRP1), purified from human placenta (human (purified from human placenta)) (Q07954 20-4544): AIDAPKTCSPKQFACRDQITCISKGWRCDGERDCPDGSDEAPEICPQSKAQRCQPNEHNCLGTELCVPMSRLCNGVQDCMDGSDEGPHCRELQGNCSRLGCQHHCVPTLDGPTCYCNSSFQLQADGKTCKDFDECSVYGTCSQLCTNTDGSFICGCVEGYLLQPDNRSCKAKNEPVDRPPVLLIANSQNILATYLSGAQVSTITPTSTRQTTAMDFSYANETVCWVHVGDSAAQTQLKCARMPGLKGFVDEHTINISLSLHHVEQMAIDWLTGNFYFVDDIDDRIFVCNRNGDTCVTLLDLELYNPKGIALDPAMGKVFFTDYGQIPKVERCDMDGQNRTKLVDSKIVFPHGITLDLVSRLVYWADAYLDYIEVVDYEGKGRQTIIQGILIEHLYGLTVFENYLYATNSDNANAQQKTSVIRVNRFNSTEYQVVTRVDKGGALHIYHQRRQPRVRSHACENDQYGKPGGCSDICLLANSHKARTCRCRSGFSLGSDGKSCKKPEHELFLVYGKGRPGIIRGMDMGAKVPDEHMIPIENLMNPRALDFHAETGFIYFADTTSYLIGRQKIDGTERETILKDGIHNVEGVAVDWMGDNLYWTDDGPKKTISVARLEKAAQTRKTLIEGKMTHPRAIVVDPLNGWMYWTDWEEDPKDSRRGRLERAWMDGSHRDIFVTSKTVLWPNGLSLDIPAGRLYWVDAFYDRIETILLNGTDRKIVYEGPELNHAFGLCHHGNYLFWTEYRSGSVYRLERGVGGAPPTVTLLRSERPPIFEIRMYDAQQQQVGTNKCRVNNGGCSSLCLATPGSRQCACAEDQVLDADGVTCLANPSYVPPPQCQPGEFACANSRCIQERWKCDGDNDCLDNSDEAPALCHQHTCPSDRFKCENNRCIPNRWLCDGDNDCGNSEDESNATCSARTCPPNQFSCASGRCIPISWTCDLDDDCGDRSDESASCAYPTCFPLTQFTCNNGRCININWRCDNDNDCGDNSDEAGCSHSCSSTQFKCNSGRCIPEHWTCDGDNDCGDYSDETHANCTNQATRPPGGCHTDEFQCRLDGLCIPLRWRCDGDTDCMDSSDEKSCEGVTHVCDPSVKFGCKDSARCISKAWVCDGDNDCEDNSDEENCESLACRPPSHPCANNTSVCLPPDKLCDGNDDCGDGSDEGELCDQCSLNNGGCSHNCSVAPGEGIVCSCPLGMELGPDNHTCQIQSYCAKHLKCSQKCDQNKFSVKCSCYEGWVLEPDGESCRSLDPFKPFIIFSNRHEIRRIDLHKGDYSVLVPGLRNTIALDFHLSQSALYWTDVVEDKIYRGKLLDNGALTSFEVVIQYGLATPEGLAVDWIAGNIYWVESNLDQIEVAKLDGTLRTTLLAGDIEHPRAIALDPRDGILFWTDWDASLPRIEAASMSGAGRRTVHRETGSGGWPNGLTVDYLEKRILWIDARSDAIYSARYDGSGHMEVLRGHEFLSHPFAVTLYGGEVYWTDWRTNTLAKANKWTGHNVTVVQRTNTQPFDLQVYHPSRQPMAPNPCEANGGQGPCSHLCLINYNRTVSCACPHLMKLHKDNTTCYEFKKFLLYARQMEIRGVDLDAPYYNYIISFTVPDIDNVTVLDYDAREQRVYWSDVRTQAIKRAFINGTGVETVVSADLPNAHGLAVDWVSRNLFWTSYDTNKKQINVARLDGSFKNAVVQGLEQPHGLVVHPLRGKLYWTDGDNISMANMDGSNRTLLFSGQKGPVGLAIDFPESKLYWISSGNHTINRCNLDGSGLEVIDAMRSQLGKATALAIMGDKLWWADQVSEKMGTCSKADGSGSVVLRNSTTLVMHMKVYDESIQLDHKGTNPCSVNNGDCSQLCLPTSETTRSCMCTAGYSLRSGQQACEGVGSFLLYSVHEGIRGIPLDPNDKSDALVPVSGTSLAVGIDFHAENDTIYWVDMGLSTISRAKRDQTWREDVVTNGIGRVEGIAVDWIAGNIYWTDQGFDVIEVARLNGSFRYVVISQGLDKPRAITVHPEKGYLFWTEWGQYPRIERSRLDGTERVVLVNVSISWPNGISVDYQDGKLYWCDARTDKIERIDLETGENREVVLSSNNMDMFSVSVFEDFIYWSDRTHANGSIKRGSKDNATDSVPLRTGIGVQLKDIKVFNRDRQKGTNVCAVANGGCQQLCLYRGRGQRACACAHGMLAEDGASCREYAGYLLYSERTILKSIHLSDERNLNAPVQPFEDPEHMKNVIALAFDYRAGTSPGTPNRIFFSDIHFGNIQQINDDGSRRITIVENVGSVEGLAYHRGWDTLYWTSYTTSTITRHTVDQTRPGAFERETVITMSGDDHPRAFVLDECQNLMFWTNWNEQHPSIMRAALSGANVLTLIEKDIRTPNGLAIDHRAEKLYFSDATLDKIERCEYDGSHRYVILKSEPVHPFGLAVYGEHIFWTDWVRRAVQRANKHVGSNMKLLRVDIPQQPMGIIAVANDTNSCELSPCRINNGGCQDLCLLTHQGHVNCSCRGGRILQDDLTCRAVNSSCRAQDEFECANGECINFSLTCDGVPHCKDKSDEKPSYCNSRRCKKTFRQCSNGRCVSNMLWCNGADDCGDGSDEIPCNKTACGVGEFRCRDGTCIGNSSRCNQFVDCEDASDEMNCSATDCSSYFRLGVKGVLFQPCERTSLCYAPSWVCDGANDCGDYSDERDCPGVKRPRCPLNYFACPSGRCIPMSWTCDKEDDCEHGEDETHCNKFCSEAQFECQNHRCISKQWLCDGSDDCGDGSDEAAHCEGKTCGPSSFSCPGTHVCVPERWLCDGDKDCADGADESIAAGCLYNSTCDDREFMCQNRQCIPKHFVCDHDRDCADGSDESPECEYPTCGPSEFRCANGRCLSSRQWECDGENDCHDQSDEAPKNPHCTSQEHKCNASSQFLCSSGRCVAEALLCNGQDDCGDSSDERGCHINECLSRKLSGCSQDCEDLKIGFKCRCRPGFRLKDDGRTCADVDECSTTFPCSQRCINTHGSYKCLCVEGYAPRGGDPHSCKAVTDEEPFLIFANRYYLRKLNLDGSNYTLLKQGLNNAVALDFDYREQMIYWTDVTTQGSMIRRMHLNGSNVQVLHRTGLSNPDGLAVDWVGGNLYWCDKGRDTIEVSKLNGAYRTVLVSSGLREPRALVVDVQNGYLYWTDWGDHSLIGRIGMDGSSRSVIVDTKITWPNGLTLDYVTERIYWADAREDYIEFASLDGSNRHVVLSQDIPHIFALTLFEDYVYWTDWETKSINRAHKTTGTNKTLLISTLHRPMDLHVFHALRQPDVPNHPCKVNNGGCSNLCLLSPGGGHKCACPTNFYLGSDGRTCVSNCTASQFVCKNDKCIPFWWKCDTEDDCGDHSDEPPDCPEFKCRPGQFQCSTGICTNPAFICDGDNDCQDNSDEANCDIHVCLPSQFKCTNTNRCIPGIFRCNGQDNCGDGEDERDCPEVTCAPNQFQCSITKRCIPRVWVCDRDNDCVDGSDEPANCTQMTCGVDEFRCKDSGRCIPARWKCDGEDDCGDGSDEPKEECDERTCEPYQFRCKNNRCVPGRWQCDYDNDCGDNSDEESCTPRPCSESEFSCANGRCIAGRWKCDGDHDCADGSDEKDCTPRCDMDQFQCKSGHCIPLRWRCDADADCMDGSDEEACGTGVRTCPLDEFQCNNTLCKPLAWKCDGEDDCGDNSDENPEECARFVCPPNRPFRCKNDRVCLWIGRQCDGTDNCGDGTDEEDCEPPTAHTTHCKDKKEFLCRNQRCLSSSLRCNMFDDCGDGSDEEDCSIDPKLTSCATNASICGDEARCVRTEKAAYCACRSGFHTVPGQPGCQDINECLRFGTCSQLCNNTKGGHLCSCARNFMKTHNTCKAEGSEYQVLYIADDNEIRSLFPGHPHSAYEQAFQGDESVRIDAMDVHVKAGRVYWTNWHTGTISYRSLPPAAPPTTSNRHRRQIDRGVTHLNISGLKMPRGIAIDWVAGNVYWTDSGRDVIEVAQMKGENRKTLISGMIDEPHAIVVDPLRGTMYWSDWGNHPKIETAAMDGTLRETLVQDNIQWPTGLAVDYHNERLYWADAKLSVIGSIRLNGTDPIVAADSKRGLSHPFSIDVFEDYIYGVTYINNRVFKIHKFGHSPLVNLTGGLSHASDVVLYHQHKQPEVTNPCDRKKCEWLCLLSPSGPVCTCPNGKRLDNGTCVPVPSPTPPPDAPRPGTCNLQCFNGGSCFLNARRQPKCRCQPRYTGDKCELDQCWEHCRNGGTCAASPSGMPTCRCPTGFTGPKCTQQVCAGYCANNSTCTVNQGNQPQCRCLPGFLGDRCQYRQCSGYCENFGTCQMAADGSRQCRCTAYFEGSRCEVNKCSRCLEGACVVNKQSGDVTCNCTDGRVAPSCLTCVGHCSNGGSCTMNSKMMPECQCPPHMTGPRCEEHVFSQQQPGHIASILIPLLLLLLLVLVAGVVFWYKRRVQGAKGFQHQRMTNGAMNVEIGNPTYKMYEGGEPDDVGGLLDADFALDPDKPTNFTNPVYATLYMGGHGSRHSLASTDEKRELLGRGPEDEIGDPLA
The next test addresses LRP1 (Homo sapiens) (UniProt Q07954). The settings on record: cited from earlier work.

Sequence of Tissue inhibitor of metalloproteases 1 (TIMP-1) (P01033 24-207): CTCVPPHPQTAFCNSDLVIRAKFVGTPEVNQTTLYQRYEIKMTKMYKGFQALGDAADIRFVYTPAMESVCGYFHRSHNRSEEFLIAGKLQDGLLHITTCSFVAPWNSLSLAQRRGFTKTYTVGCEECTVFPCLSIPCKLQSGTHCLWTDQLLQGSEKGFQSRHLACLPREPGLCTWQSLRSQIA
Sequence of LRP1 (Homo sapiens) (Q07954 20-4544): as the sequence (Q07954 20-4544) above

As for “Tissue inhibitor of metalloproteases 1 (TIMP-1) (from UniProt P01033 24-207) (natural protein)”, the Kd in test [1] was 391 nM; in test [2], 39 nM; in test [3], 129 nM.

For “Human His-tagged proMMP-1 (from UniProt P03956 20-469) (enzyme)”, the Kd came to 358 nM in test [1], 34 nM in test [2] and 169 nM in test [3].

With “MMP-1/TIMP-1 complex (from UniProt P01033 24-207)”, in test [1], the Kd was 32 nM; the ka1 (bivalent model, first step) was 99000 M⁻¹ s⁻¹; the ka2 (bivalent model, second step) was determined as 0.02 s⁻¹; the kd1 (bivalent model, first step) was found to be 0.064 s⁻¹. Moreover, the kd2 (bivalent model, second step) in test [1] worked out at 0.001 s⁻¹. For the same substance, in test [4], the ka1 (bivalent model, first step) was found to be 93000 M⁻¹ s⁻¹; the ka2 (bivalent model, second step) amounted to 0.012 s⁻¹; the kd1 (bivalent model, first step) was 0.026 s⁻¹; the kd2 (bivalent model, second step) came to 2.7e-05 s⁻¹. Also, in test [2], the Kd amounted to 12 nM; the ka1 (bivalent model, first step) was found to be 200000 M⁻¹ s⁻¹; the ka2 (bivalent model, second step) is 0.019 s⁻¹; the kd1 (bivalent model, first step) was 0.079 s⁻¹. For the same substance, the kd2 (bivalent model, second step) in test [2] worked out at 0.00062 s⁻¹. In test [3], the Kd was found to be 27 nM; the ka1 (bivalent model, first step) came to 120000 M⁻¹ s⁻¹; the ka2 (bivalent model, second step) worked out at 0.02 s⁻¹; the kd1 (bivalent model, first step) was 0.077 s⁻¹. For the same substance, the kd2 (bivalent model, second step) in test [3] was determined as 0.00085 s⁻¹.

For “MMP-1/TIMP-3 complex (from UniProt P03956)”, in the test with LRP1 (Homo sapiens), the Kd is 5 nM.

In test [4], Active MMP-1 (enzyme) displayed a Kd of 25 nM; a ka2 (bivalent model, second step) of 0.0084 s⁻¹; a kd1 (bivalent model, first step) of 0.017 s⁻¹; a kd2 (bivalent model, second step) of 0.0015 s⁻¹.
